According to PMC4339890 (Nature Communications, 2015):

Target: the molecule itself
Assay: not stated; PAXX 1-145 in solution (Supplementary Fig. 2)

B1: PAXX N-terminal fragment (1–145) (domain or fragment, human, UniProt Q9BUH6 1-145, looked up)
chain: MDPLSPPLCTLPPGPEPPRFVCYCEGEESGEGDRGGFNLYVTDAAELWSTCFTPDSLAALKARFGLSAAEDITPRFRAACEQQAVALTLQEDRASLTLSGGPSALAFDLSKVPGPEAAPRLRALTLGLAKRVWSLERRLAAAEET
notes: A SeMet-labelled double mutant L57M/L105M of the same limits was used for phasing only; source: E. coli (pETDuet-1), purified (nickel beads, HiTrap Q, Superdex 200 gel filtration)
stoichiometry N: 2
